Assay results reported in US20220380801A1, “TRIPARTITE SYSTEMS FOR PROTEIN DIMERIZATION AND METHODS OF USE” (priority 2019, published 2022).

Test system: NanoLuc-PEST reporter in HEK293 cells
Experiment: Transcriptional regulation assay (split transcription factor), NanoLuc-PEST reporter
Type: cell-based, human
From the text: The iDimerize regulated transcription system (Takara) was used to test the ability of PRSIM-based CIDs to regulate gene expression. […] The DBD and AD are separately fused to the two protein components of a CID such that, only in the presence of the small molecule inducer, the AD is brought into close proximity to the DBD, recruiting the transcription machinery to a promoter harbouring the DBD recognition sites. The iDimerize regulated transcription system (Takara) provides two vectors, pHet-Act1-2 and pZFHD1-Luciferase. […]
All transcriptional regulation assays were performed in adherent HEK293 cells cultured in 384-well plates. Cells enzymatically dissociated from a tissue culture flask were counted and plated at 7.5×10^3 cells/well in a 384-well plate. […] On day 3, wells were treated with different concentrations of either A/C heterodimeriser (for the FRB:FKBP12 control), simeprevir or with vehicle control, and 24 hours later luminescence was quantified with an Envision plate reader immediately following addition of SteadyGlo luciferase substrate (Promega) or Nano-Glo Vivazine luciferase substrate (Promega). Alternatively, reverse transfections were carried out on Day 1, addition of dimeriser on Day 2 and luminescence quantified 24 hours later on Day 3. […]

B1: PRSIM_23: Tn3 protein specific for HCV NS3/4A PR (S139A):simeprevir complex, SEQ ID NO: 5 (protein)
chain: RLDAPSQIEVKDVTDTTALITWVDPRYDDIWWFELTYGIKDVPGDRTTIKLYLNDPYYSIGNLKPDTEYEVSLISYTGDSYSRSGSNPAKITFKTGL
modifications: PRSIM_23
- fold change of NanoLuc-PEST expression (one copy of the DBD fusion partner): 55 fold
- fold change of NanoLuc-PEST expression (three copies of the DBD fusion partner): 100 fold
